Results from patent US20100129369A1 (Eli Lilly, published 2010).

Assays:
PlexinA2-ECD-Fc [1] = biological target: T1, PlexinA2-ECD-Fc (human, UniProt O75051 35-1237); assay: ELISA, coated ECD-Fc, antibody 2777.778 ng/mL
T1 construct: extracellular domain; Bought reagent
T1 sequence (looked up): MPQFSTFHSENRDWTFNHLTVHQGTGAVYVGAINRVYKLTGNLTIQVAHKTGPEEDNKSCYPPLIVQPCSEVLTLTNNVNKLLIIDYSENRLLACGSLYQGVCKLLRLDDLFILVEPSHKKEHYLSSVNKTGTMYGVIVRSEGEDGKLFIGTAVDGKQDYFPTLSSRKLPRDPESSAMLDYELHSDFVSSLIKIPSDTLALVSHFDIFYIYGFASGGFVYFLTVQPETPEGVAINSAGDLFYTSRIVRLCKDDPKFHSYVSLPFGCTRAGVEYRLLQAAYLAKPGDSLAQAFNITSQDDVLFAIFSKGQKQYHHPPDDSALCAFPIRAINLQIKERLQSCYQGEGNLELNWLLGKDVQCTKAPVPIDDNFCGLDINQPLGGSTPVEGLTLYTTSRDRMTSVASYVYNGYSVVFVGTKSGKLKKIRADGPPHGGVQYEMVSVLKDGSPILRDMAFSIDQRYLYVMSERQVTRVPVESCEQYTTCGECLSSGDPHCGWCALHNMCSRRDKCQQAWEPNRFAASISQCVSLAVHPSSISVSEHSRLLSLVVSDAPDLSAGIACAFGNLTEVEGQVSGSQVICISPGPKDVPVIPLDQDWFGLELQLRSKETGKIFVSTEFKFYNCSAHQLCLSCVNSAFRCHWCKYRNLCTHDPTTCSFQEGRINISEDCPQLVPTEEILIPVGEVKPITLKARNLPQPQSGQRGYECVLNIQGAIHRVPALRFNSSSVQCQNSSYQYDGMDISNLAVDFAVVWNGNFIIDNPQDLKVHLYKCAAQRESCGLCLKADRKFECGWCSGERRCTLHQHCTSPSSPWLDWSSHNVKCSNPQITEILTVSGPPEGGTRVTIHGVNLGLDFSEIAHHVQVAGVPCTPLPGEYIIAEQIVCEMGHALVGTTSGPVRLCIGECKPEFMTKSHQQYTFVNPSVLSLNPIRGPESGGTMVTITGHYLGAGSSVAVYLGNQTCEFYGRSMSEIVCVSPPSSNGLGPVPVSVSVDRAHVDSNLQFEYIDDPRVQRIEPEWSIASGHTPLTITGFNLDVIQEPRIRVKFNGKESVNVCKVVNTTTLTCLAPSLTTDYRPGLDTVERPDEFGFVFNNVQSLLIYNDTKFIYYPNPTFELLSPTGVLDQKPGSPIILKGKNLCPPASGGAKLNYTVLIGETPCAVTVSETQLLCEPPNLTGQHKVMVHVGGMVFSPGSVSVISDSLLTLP
Experimental: (§1) Wells of 96-well EIA/RIA high binding plates (Costar, #2592) are coated with 100 μL of 1 μg/mL human c-Met extracellular domain (ECD)-Fc-Flis fusion (SEQ ID NO:72), RON-ECD-Fc (R&D Systems, #1947-MS), or PlexinA2-ECD-Fc (Abnova, Taipei, Taiwan #H00005362-P01) in coating buffer (BioFX Labs, # COAT-1000-01) overnight at 4° C. […] After the plates are washed, 100 μL/well of substrate solution (BioFx, #TMBW-1000-01) are added and the plates are incubated for 10 min. at room temperature. 100 μL/well of stop solution (BioFx, # LSTP-1000-01) are added to stop the reaction. The colorimetric signals are developed and read at 450 nm using a SpectraMax 190 plate reader (Molecular Devices, Sunnyvale, Calif.). c-Met antibody binding to c-Met, RON and PlexinA2 ECDs is proportional to color signal production.

Human c-Met-Flis-Fc ECD [2] = biological target: T2, Human c-Met-Flis-Fc ECD (human); assay: ELISA, coated ECD-Fc, antibody 2777.778 ng/mL
T2 construct: also called human c-Met extracellular domain (ECD)-Fc-Flis fusion; Human cMet-ECD-Fc-Flis
T2 sequence (chain, as listed by the source limits assumed): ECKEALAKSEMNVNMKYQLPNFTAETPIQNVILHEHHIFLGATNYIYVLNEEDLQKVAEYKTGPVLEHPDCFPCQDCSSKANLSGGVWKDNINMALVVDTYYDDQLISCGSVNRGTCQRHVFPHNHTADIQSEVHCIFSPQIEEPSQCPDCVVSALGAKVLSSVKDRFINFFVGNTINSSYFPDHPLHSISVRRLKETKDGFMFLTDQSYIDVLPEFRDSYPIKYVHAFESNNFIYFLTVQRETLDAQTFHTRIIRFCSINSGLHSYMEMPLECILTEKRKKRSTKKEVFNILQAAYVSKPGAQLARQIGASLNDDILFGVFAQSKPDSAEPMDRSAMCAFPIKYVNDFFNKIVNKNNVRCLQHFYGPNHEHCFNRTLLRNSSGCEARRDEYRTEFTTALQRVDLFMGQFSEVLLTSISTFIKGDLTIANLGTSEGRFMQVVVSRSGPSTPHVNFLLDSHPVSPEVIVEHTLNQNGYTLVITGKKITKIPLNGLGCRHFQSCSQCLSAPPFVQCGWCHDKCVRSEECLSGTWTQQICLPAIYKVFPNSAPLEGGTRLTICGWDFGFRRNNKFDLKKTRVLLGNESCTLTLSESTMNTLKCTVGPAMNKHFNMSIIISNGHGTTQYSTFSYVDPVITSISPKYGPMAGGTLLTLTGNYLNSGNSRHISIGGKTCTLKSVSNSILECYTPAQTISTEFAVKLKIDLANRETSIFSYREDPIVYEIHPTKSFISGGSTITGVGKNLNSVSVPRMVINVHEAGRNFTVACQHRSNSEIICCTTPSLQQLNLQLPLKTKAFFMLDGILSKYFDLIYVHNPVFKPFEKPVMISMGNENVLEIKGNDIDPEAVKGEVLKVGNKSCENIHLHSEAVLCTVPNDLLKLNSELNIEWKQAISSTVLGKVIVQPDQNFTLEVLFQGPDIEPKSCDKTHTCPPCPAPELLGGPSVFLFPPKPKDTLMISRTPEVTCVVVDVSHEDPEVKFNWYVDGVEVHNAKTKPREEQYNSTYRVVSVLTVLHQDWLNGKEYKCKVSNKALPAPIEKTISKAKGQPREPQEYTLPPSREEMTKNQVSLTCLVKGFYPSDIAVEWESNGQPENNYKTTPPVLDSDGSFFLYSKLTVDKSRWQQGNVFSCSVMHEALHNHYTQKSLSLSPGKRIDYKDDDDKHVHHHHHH
Experimental: as §1

RON-ECD-Fc [3] = biological target: T3, RON-ECD-Fc (human, UniProt Q04912 25-957); assay: ELISA, coated ECD-Fc, antibody 2777.778 ng/mL
T3 construct: extracellular domain; Bought reagent; not shown: Fc part of the bought fusion
T3 sequence (looked up): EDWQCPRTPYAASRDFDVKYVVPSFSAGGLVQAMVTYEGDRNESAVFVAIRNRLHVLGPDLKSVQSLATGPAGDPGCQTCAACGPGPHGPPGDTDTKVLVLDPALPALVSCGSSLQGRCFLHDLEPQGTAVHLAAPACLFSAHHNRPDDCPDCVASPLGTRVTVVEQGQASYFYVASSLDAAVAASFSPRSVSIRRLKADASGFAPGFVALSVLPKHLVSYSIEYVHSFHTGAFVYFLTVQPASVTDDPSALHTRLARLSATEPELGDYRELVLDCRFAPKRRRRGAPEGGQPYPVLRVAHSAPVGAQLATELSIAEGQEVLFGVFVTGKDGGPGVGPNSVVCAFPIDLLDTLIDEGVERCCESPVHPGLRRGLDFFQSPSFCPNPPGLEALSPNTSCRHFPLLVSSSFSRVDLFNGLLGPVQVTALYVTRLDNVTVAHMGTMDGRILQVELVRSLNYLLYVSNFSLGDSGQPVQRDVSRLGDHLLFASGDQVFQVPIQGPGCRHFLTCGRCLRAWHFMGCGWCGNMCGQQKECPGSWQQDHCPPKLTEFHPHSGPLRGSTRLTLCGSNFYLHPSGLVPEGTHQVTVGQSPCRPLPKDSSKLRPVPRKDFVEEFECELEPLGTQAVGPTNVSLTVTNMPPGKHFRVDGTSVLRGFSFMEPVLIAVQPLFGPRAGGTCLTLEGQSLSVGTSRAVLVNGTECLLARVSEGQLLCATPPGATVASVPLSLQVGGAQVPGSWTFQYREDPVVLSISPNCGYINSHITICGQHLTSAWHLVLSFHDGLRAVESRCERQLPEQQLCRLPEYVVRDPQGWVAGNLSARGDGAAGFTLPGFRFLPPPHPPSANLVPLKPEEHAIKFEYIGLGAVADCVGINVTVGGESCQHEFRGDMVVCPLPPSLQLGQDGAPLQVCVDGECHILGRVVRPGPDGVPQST
Experimental: as §1

RON-ECD-Fc [4] = biological target: T3, RON-ECD-Fc; assay: ELISA, coated ECD-Fc, antibody 2.143 ng/mL
PlexinA2-ECD-Fc [5] = biological target: T1, PlexinA2-ECD-Fc; assay: ELISA, coated ECD-Fc, antibody 12.860 ng/mL
Experimental: as §1

Human c-Met-Flis-Fc ECD [6] = biological target: T2, Human c-Met-Flis-Fc ECD; assay: ELISA, coated ECD-Fc, antibody 12.860 ng/mL
Experimental: as §1

RON-ECD-Fc [7] = biological target: T3, RON-ECD-Fc; assay: ELISA, coated ECD-Fc, antibody 12.860 ng/mL
Experimental: as §1

Average A450 nm (PlexinA2-ECD-Fc [1]): 0.094 A450 nm
Average A450 nm (Human c-Met-Flis-Fc ECD [2]): 4 A450 nm
Average A450 nm (RON-ECD-Fc [3]): 0.088 A450 nm
Average A450 nm (RON-ECD-Fc [4]): 0.098 A450 nm
Average A450 nm (PlexinA2-ECD-Fc [5]): 0.085 A450 nm
Average A450 nm (Human c-Met-Flis-Fc ECD [6]): 4 A450 nm
Average A450 nm (RON-ECD-Fc [7]): 0.087 A450 nm
B1: C8-6 (antibody, human IgG2, kappa, V domains shown)
VH: QVQLVQSGAEVKKPGASVKVSCKASGYTFTDYYMHWVRQAPGQGLEWMGRVNPNRGGTTYNQKFEGRVTMTTDTSTSTAYMELRSLRSDDTAVYYCARTNWLDYWGQGTTVTVSS
VL: DIQMTQSPSSLSASVGDRVTITCSVSSSVSSIYLHWYQQKPGKAPKLLIYSTSNLASGVPSRFSGSGSGTDFTLTISSLQPEDFATYYCIQYSGYPLTFGGGTKVEIKR
notes: Called IgG4, kappa; also called Mab C8-6
